Assay results reported in patent US20250346668A1.
Substitutions are numbered along the chain they refer to.

B1: mAb001 (antibody, V domains shown)
VH: QVQLQQSGPELVKPGASVKISCKASGYSFTNYYMHWVKQRPGQGLEWIGWTYPGNNNIKYNEKFKGKATLTADTSSSTAYMQLSSLTSEDSAVYYCARDGYGYYFFDYWGQGIILTVSS
VL: DIVMSQSPSSLAVSAGEKVTMSCKSSQSLLNNRTRKNYLAWYQQKPGQSPKLLIYWASTRESGVPDRFTGSGSGTDFTLTISSVQAEDLAIYYCKQSYTLRTFGGGTKLAIK
B2: mAb007 (antibody, V domains shown)
VH: QVQLQQSGPELVKPGASVKISCKASGSTFTDNYIHWVKQRPGQGLEWIGWIYPGSVNIKYNEKFKDKATLTADTSSTTAYMQLSSLSSEDSAIYYCARDISRYYFDYWGQGTTLTVSS
VL: B1 VL with K18R, S22N, N32S, I91V, Y98F, T99I

Molecular target: Human CD3e/g protein (human) (UniProt P07766)
Assay: ELISA, coated hCD3e/g

Binder	EC50 [nM]	OD450 nm at 0.000853 nM [OD450 nm]	OD450 nm at 0.0043 nM [OD450 nm]	OD450 nm at 0.02 nM [OD450 nm]	OD450 nm at 0.11 nM [OD450 nm]	OD450 nm at 0.53 nM [OD450 nm]	OD450 nm at 2.67 nM [OD450 nm]	OD450 nm at 13.3 nM [OD450 nm]	OD450 nm at 66.7 nM [OD450 nm]
B1	0.21	0.207	0.12	0.24	0.89	3.2	3.64	3.67	3.67
B2	0.22	0.123	0.111	0.27	0.76	2.96	3.39	3.47	3.41
